Test results taken from US20120316071A1 (published 2012).

T1: rHuman Erythropoietin R/Fc Chimera, CF (R&D Systems Cat#963-ER) (human, UniProt P19235 25-250)
T1 construct: Bought from R&D Systems; also called EPO R/Fc; Epo R/Fc chimera; not shown: Fc of the bought chimera
T1 sequence (looked up): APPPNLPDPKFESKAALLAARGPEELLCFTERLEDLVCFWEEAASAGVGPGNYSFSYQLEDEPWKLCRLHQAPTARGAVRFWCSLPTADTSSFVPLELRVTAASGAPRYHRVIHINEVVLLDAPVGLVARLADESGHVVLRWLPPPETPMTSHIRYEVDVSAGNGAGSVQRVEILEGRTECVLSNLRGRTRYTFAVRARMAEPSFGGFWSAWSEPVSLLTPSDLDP

T2: rHuman Erythropoietin R/Fc Chimera, CF (R&D Systems Cat#963-ER) (human, UniProt P19235 25-250)
T2 construct: Bought recombinant protein; also called EPO R/Fc; Epo R; Fc part of the bought chimera not given
T2 sequence (looked up): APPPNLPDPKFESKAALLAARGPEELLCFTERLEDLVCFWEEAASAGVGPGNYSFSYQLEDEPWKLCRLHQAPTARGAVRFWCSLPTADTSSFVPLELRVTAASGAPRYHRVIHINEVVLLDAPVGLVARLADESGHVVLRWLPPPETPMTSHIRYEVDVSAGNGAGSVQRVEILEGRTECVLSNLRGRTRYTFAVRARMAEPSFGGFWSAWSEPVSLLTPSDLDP


Columns and labels:
[1] = target: T3, Recombinant Human DLL4 (R&D Systems Cat#1506-D4/CF) (human, UniProt Q9NR61 27-524); assay: MSD multispot ECL, antigen spotted on plate, Fab 22 nM; blank spot 289
T3 construct: Bought from R&D Systems; also called rHuman DLL4; delta-like protein 4

[2] = target: T4, rHuman ErbB2/Fc Chimera, CF (R&D Systems Cat#1129-ER) (human, UniProt P04626 23-652); assay: as above
T4 construct: Bought from R&D Systems; also called human epidermal growth factor 2 receptor (ErbB2); not shown: Fc of the bought chimera

[3] = target: T5, rHuman EGF R/Fc Chimera, CF (R&D Systems Cat#344-ER) (human, UniProt P00533 25-645); assay: as above
T5 construct: Bought from R&D Systems; also called epidermal growth factor receptor (EGF R); not shown: Fc of the bought chimera

[4] = target: T6, rHuman HGF R/c-MET/Fc Chimera, CF (R&D Systems Cat#358-MT/CF) (human, UniProt P08581 25-932); assay: as above
T6 construct: Bought from R&D Systems; also called HGF R/Fc; hepatocyte growth factor receptor (HGF R/c-Met); not shown: Fc of the bought chimera
T6 sequence (P08581 25-932, change not shown): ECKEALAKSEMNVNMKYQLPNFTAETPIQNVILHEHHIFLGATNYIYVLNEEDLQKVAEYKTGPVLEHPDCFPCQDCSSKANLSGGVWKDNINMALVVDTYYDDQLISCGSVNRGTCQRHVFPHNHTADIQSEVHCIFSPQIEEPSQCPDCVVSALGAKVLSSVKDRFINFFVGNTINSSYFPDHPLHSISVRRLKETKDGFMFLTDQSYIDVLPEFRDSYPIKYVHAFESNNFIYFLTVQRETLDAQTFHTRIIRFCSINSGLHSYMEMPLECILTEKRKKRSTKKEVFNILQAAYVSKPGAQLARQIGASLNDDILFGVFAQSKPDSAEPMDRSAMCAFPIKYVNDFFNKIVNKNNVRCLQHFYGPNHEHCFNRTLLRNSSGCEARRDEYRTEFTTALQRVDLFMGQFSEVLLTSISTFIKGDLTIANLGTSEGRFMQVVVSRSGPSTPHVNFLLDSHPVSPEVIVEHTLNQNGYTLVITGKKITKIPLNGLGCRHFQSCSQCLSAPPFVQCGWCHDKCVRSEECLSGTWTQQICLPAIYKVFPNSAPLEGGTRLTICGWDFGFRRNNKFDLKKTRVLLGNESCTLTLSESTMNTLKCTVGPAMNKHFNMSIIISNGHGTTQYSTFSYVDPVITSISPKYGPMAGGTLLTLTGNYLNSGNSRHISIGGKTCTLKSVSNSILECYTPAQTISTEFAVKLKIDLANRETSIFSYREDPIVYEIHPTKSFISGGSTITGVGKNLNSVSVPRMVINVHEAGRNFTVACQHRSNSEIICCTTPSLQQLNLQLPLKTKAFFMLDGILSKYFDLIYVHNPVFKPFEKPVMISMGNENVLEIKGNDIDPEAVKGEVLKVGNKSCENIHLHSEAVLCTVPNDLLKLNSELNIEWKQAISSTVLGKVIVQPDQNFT

[5] = target: T7, rHuman Notch-1/Fc Chimera, CF (R&D Systems Cat#3647-TK) (human, UniProt P46531 19-526); assay: as above
T7 construct: Bought from R&D Systems; not shown: Fc of the bought chimera

[6] = target: T8, rHuman CD44/Fc Chimera, CF (R&D Systems Cat#3660-CD) (human, UniProt P16070 21-220); assay: as above
T8 construct: Bought from R&D Systems; not shown: Fc of the bought chimera

[7] = target: T9, rHuman IGF-1 sR, (IGF-1 sR), CF (R&D Systems Cat#391-GR) (human, UniProt P08069 31-932); assay: as above
T9 construct: Bought from R&D Systems and called a soluble receptor; also called insulin-like growth factor-1 soluble receptor

[8] = target: T10, rHuman P-Cadherin/Fc Chimera, CF (R&D Systems Cat#861-PC) (human, UniProt P22223 108-654); assay: as above
T10 construct: Bought from R&D Systems; not shown: Fc of the bought chimera

[9] = target: T1, rHuman Erythropoietin R/Fc Chimera, CF …; assay: as above
[10] = target: T5, rHuman EGF R/Fc Chimera, CF (R&D …); assay: MSD multispot ECL, antigen spotted on plate, Fab 705 nM; blank spot 483
[11] = target: T9, rHuman IGF-1 sR, (IGF-1 sR), CF (R&D …); assay: as above
[12] = target: T11, Recombinant Human DLL4 (R&D Systems Cat#1506-D4/CF) (human, UniProt Q9NR61 27-524); assay: Multispot ECL (MSD), antigen spotted on plate, Fab 31.3 nM; blank spot 250
T11 construct: Bought recombinant protein; also called rHuman DLL4; delta-like protein 4

[13] = target: T12, rHuman Notch-1/Fc Chimera, CF (R&D Systems Cat#3647-TK) (human, UniProt P46531 19-526); assay: as above
T12 construct: Bought recombinant protein; Fc part of the bought chimera not given

[14] = target: T13, rHuman IGF-1 sR, CF (R&D Systems Cat#391-GR) (human, UniProt P08069 31-932); assay: as above
T13 construct: Bought recombinant soluble receptor; also called insulin-like growth factor-1 soluble receptor

[15] = target: T2, rHuman Erythropoietin R/Fc Chimera, CF …; assay: as above
[16] = target: T11, Recombinant Human DLL4 (R&D Systems …); assay: Multispot ECL (MSD), antigen spotted on plate, Fab 1000 nM; blank spot 1133
[17] = target: T12, rHuman Notch-1/Fc Chimera, CF (R&D …); assay: as above
[18] = target: T13, rHuman IGF-1 sR, CF (R&D Systems …); assay: as above
[19] = target: T2, rHuman Erythropoietin R/Fc Chimera, CF …; assay: as above

Binder | ECL signal [1] | ECL signal [2] | ECL signal [3] | ECL signal [4] | ECL signal [5] | ECL signal [6] | ECL signal [7] | ECL signal [8] | ECL signal [9] | ECL signal [10] | ECL signal [11] | ECL signal [12] | ECL signal [13] | ECL signal [14] | ECL signal [15] | ECL signal [16] | ECL signal [17] | ECL signal [18] | ECL signal [19]
Fab VH1-46_IGHD3-10*01_IGHJ4*01 & B3_IGKJ1*01 (Fab, V domains shown, Tested as a Fab made in E. coli; VH was cloned into Plasmid A (CH1 constant region, His6 and Flag tags); The kappa VL was cloned into Plasmid C (kappa CL)) VH: QVQLVQSGAEVKKPGASVKVSCKASGYTFTSYYMHWVRQAPGQGLEWMGIINPSGGSTSYAQKFQGRVTMTRDTSTSTVYMELSSLRSEDTAVYYCAREYYYGSGSYYNDYFDYWGQGTLVTVSS VL: not shown | 342 | 363 | 312 | 203 | 389 | 317 | 347 | 215 | 2240 | 692 | 630 | – | – | – | – | – | – | – | –
Fab VH1-46_IGHD6-13*01_IGHJ4*01 & B3_IGKJ1*01 (Fab, V domains shown, Germline Fab made in E. coli; VH was cloned into Plasmid A (CH1, His6 and Flag tags) and the kappa VL into Plasmid C (kappa CL)) VH: QVQLVQSGAEVKKPGASVKVSCKASGYTFTSYYMHWVRQAPGQGLEWMGIINPSGGSTSYAQKFQGRVTMTRDTSTSTVYMELSSLRSEDTAVYYCAREGYSSSWYDYFDYWGQGTLVTVSS VL: not shown | – | – | – | – | – | – | – | – | – | – | – | 528 | 563 | 385 | 7880 | 2780 | 2270 | 1670 | 8590
